Source: patent publication US20050089871

Target: D1 receptor of human renal proximal tubule cells (UniProt P21728)
Sequence (P21728 whole entry): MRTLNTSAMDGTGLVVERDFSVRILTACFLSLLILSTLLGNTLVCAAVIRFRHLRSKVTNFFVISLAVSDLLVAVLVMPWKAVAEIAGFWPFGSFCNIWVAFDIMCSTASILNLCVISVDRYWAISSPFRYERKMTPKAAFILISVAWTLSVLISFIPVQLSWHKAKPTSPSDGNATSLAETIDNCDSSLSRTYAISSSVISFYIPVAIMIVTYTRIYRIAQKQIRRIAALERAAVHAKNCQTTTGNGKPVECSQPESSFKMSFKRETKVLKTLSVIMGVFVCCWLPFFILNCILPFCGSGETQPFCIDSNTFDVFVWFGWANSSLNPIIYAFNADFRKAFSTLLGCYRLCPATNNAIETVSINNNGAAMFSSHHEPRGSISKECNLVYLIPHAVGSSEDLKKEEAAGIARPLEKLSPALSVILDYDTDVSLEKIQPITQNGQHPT

GRK4 of human renal proximal tubule cells
serine phosphorylation of the D1 receptor (immunoprecipitation with anti D1 receptor antibody, anti-phosphoserine immunoblot) after GRK4 antisense treatment: GRK4 antisense treatment almost completely abolished the phosphorylation of the D1 receptor in fenoldopam-treated renal proximal tubule cells from hypertensive subjects to levels that are lower than basal values
